Assay results from IntAct's records for PubMed 15086532.

B1: Delta-type opioid receptor (Homo sapiens), P41143 (parent)
chain: MEPAPSAGAELQPPLFANASDAYPSACPSAGANASGPPGARSASSLALAIAITALYSAVCAVGLLGNVLVMFGIVRYTKMKTATNIYIFNLALADALATSTLPFQSAKYLMETWPFGELLCKAVLSIDYYNMFTSIFTLTMMSVDRYIAVCHPVKALDFRTPAKAKLINICIWVLASGVGVPIMVMAVTRPRDGAVVCMLQFPSPSWYWDTVTKICVFLFAFVVPILIITVCYGLMLLRLRSVRLLSGSKEKDRSLRRITRMVLVVVGAFVVCWAPIHIFVIVWTLVDIDRRDPLVVAALHLCIALGYANSSLNPVLYAFLDENFKRCFRQLCRKPCGRPDPSSFSRAREATARERVTACTPSDGPGGGAAA

Variants of: B1
Details: with gasp1_human GPRASP1, Q5JY77
gasp1_human GPRASP1, Q5JY77, sequence (Q5JY77 whole entry): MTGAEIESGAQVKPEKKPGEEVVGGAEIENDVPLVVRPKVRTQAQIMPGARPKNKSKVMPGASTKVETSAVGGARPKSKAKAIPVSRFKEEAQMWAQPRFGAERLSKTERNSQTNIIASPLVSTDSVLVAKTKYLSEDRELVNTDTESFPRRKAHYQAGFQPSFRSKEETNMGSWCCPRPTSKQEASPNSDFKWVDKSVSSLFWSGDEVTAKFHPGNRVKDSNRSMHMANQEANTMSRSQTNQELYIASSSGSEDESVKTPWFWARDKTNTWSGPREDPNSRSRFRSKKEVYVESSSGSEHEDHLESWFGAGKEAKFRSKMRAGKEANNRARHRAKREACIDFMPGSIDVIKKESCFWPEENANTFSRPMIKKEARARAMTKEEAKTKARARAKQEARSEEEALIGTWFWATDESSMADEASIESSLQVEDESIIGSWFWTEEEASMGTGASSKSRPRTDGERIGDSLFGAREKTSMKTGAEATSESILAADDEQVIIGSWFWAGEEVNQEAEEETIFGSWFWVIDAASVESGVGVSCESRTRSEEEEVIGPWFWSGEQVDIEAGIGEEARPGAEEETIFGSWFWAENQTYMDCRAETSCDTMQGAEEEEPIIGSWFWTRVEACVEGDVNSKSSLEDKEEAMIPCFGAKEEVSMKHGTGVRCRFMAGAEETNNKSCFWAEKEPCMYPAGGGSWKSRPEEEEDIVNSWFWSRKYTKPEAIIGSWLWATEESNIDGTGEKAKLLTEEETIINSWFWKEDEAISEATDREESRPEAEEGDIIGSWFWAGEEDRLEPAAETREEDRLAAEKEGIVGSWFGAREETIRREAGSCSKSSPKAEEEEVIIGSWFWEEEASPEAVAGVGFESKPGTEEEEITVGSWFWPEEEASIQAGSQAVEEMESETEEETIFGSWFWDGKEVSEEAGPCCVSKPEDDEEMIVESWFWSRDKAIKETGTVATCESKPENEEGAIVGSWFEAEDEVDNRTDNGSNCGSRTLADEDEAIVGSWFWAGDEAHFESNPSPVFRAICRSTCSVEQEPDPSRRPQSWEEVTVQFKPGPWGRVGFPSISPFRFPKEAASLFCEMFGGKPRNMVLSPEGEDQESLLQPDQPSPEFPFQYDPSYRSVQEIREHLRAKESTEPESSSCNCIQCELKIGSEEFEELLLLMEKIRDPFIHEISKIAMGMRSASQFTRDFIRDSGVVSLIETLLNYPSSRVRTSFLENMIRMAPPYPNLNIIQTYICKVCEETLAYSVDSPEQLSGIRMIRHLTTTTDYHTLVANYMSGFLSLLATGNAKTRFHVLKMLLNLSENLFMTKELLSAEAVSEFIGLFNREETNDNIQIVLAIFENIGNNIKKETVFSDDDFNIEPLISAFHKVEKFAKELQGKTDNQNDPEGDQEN

Row | effect of a mutation on the interaction | Variant
1 | decreasing interaction | MEPAPSAGAELQPPLFANASDAYPSACPSAGANASGPPGARSASSLALAIAITALYSAVCAVGLLGNVLVMFGIVRYTKMKTATNIYIFNLALADALATSTLPFQSAKYLMETWPFGELLCKAVLSIDYYNMFTSIFTLTMMSVDRYIAVCHPVKALDFRTPAKAKLINICIWVLASGVGVPIMVMAVTRPRDGAVVCMLQFPSPSWYWDTVTKICVFLFAFVVPILIITVCYGLMLLRLRSVRLLSGSKEKDRSLRRITRMVLVVVGAFVVCWAPIHIFVIVWTLVDIDRRDPLVVAALHLCIALGYANSSLNPVLYAFLDENAARCFRQLCRKPCGRPDPSSFSRAREATARERVTACTPSDGPGGGAAA [F325A;K326A]
